Measurements published in patent publication US20170022281A1 (AbbVie / Abbott, published 2017).

Columns and labels:
[1] = molecular target: T1, cyno PRLR (Biacore antigen) (cyno, UniProt A0A2K5WXK1 25-234); experiment: SPR Biacore
T1 construct: also called cyPRLR
T1 sequence: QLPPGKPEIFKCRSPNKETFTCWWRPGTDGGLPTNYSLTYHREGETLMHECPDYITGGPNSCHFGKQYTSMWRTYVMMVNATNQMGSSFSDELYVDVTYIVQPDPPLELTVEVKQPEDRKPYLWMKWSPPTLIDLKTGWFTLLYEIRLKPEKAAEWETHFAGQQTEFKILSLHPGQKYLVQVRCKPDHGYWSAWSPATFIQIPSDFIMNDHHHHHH
How it was run: (§1)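 Association rate, dissociation rate and dissociation constant were measured by surface plasmon resonance on a Biacore instrument. PRLR antigen was tested at 600 nM, 66.67 nM and 7.41 nM, a 3-point, 9-fold dilution series. Constants came from a 1:1 binding model fit (local Rmax, mass-transport term included) in Biacore T200 Evaluation Software.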

[2] = molecular target: T2, murine PRLR (Biacore antigen) (murine, UniProt Q08501 20-229, limits assumed); experiment: SPR Biacore
T2 construct: also called muPRLR
T2 sequence (looked up): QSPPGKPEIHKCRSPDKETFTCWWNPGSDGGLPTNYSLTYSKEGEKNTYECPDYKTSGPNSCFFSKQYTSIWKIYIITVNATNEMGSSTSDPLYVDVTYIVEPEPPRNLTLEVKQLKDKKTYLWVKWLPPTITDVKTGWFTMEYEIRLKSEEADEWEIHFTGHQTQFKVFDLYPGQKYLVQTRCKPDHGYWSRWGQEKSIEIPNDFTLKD
How it was run: as §1

[3] = molecular target: T3, human PRLR (Biacore antigen) (human, UniProt P16471 25-234, limits assumed); experiment: SPR Biacore
T3 construct: The construct injected over captured antibody is not described (a soluble form is likely); also called huPRLR
T3 sequence: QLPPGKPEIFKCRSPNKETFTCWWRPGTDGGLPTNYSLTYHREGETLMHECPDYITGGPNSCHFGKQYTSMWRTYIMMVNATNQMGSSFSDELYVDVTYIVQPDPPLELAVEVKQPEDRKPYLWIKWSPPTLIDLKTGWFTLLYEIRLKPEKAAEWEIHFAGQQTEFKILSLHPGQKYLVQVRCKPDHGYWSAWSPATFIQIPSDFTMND
How it was run: as §1

[4] = molecular target: T4, human PRLR on cells (human, UniProt P16471 25-622); experiment: cell-based or functional assay
T4 sequence: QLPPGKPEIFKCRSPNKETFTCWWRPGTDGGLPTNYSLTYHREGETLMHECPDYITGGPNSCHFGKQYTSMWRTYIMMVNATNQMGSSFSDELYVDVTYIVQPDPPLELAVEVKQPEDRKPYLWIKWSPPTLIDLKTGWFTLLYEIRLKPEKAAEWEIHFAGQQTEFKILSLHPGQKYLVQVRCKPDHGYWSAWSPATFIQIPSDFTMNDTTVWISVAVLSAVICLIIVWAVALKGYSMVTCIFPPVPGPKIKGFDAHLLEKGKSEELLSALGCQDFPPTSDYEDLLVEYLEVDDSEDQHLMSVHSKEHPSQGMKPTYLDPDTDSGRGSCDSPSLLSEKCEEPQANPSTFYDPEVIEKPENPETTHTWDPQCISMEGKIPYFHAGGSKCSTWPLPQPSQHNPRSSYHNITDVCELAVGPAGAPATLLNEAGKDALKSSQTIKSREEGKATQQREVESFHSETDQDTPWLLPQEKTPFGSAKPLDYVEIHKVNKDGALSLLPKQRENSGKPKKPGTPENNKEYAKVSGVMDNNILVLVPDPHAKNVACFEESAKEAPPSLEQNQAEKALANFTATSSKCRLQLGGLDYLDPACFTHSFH

[5] = molecular target: cyno PRLR on Baf3-cyPRLR cells (cyno); experiment: cell-based or functional assay
[6] = molecular target: T3, human PRLR (Biacore antigen); experiment: SPR simultaneous binding; PRLR held by surface mAb Ab19
Description: (§2) Running buffer was HBS-EP+ (10 mM Hepes, pH7.4, 150 mM NaCl, 3 mM EDTA, 0.05% surfactant). Assay was performed at 12° C. using Biacore T200 and CM5 sensor chips with anti-human IgG (Pierce) amine-coupled in all 4 flow cells to ˜2000 RU.
(§3) Separate test mAbs were captured in flowcells 2, 3 & 4 (flowcell 1 was reference, no test mAb). All 4 flowcells were then blocked by injection with isotype control mAb at 50 ug/ml. All 4 flowcells were then injected with antigen or buffer only (buffer only is for double referencing, done for each mAb pair individually). All 4 flowcells were then injected with 2nd test mAb at 10 ug/ml. All 4 flowcells were then regenerated with glycine, pH1.5.

[7] = molecular target: T3, human PRLR (Biacore antigen); experiment: SPR simultaneous binding; PRLR held by surface mAb Ab30
Description: as §2, §3

[8] = molecular target: T3, human PRLR (Biacore antigen); experiment: SPR simultaneous binding; PRLR held by surface mAb LFA102
Description: as §2, §3

B1: chAb7 (antibody, human IgG1, kappa, V domains shown)
VH: QVQLQQPGAELVMPGTSVKLSCKASGYTFTSYWIHWVKQRPGQGLEWIGEIDPSDSYTNYNQKFKGKATLTVDRSSSTAYMQLSSLTSEDSAVYYCGRSFFTNWFAYWGQGTLVTVSA
VL: DVVMTQTPLSLPVSLGDQASISCRSSQSLVHSNGNTYLHWYLQKPGQSPKLLIYKVSNRFSGVPDRFSGSGSGTDFTLKINRVEAEDLGVYFCSQSTHVPFTFGSGTKLEIKT
notes: chimeric, murine variable and human G1/kappa constant regions
Kd [1]: 0.154 nM | koff [1]: 3.61e-05 s⁻¹ | kon [1]: 235000 M⁻¹ s⁻¹ | Kd [2]: 44.9 nM | koff [2]: 0.00357 s⁻¹ | kon [2]: 79500 M⁻¹ s⁻¹ | Kd [3]: 0.18 nM | koff [3]: 4.46e-05 s⁻¹ | kon [3]: 248000 M⁻¹ s⁻¹ | Baf3-hPRLR proliferation IC50 [4]: 1.2 µg/mL | Baf3-cyPRLR proliferation IC50 [5]: 1.9 µg/mL | solution mAb binding, % of PRLR binding [6]: -1% | solution mAb binding, % of PRLR binding [7]: -1% | solution mAb binding, % of PRLR binding [8]: 48%
